From the supplement of paper PMC6757056
± gives the standard deviation of the averaged measurements.

B1: library; a variant is named by its letters at N, in order (parent)
chain: GCUGUCACCGGUGUAUUACCCUAGUGGUCGACCGGUCUGAUGAGUCUNNNNNNAGACGAAACAGC

Key:
hypoxanthine [1] = variants of: B1; test: normalized RNA/DNA level with ligand (relative to sTRSVctl = 100) (log10 (% of sTRSVctl)); ligand: hypoxanthine (xanthine aptamer); higher = less ribozyme self-cleavage, higher mRNA level; settings: ligand concentration (+) RNA-Seq: 5 mM, HEK293T, reporter: mCherry (pCS4076), ligand present: yes
In short: (§1)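 Ribozyme switch library plasmids with mCherry reporters (eGFP in certain ligand experiments) went into HEK293T cells at 4 µg per 6-well well. Where ligand was used, it was applied 1 h before transfection, and total RNA was extracted with EDTA 72 h later for reverse transcription, amplification, barcoding and sequencing. RNA level is the RNA-to-DNA read ratio normalized to a spiked-in non-cleaving sequence or to the leading sequences, then scaled and log-transformed. Scaling was ×100 with log10, the leading set comprised 25 sequences, and the cutoff was ≥100 DNA reads.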

hypoxanthine [2] = variants of: B1; test: normalized RNA/DNA level without ligand (relative to sTRSVctl = 100) (log10 (% of sTRSVctl)); ligand: hypoxanthine (xanthine aptamer); higher = less ribozyme self-cleavage, higher mRNA level; settings: HEK293T, reporter: mCherry (pCS4076), ligand present: no
In short: as §1

UUUACA
normalized RNA/DNA level with ligand (log10) (hypoxanthine [1]): 1.97 ± 0.04 | normalized RNA/DNA level without ligand (log10) (hypoxanthine [2]): 1.912 ± 0.011

UUUACC
normalized RNA/DNA level with ligand (log10) (hypoxanthine [1]): 1.957 ± 0.011 | normalized RNA/DNA level without ligand (log10) (hypoxanthine [2]): 1.867 ± 0.014

UUUACG
normalized RNA/DNA level with ligand (log10) (hypoxanthine [1]): 1.92 ± 0.035 | normalized RNA/DNA level without ligand (log10) (hypoxanthine [2]): 1.76 ± 0.048

UUUACU
normalized RNA/DNA level with ligand (log10) (hypoxanthine [1]): 1.94 ± 0.024 | normalized RNA/DNA level without ligand (log10) (hypoxanthine [2]): 1.876 ± 0.0032

AUGAUC
normalized RNA/DNA level with ligand (log10) (hypoxanthine [1]): 1.98 ± 0.039 | normalized RNA/DNA level without ligand (log10) (hypoxanthine [2]): 1.93 ± 0.022

AUGAUU
normalized RNA/DNA level with ligand (log10) (hypoxanthine [1]): 1.92 ± 0.036 | normalized RNA/DNA level without ligand (log10) (hypoxanthine [2]): 1.709 ± 0.003

UUGAUU
normalized RNA/DNA level with ligand (log10) (hypoxanthine [1]): 1.98 ± 0.03 | normalized RNA/DNA level without ligand (log10) (hypoxanthine [2]): 1.905 ± 0.011

UUGAUG
normalized RNA/DNA level with ligand (log10) (hypoxanthine [1]): 1.94 ± 0.045 | normalized RNA/DNA level without ligand (log10) (hypoxanthine [2]): 1.8 ± 0.029

UUGAUC
normalized RNA/DNA level with ligand (log10) (hypoxanthine [1]): 1.952 ± 0.0039 | normalized RNA/DNA level without ligand (log10) (hypoxanthine [2]): 2.02 ± 0.035

AUGACU
normalized RNA/DNA level with ligand (log10) (hypoxanthine [1]): 1.95 ± 0.024 | normalized RNA/DNA level without ligand (log10) (hypoxanthine [2]): 1.829 ± 0.016

AUGACC
normalized RNA/DNA level with ligand (log10) (hypoxanthine [1]): 1.914 ± 0.019 | normalized RNA/DNA level without ligand (log10) (hypoxanthine [2]): 1.902 ± 0.016

UUGCGC
normalized RNA/DNA level with ligand (log10) (hypoxanthine [1]): 1.94 ± 0.027 | normalized RNA/DNA level without ligand (log10) (hypoxanthine [2]): 1.91 ± 0.02

UUGCGU
normalized RNA/DNA level with ligand (log10) (hypoxanthine [1]): 1.97 ± 0.024 | normalized RNA/DNA level without ligand (log10) (hypoxanthine [2]): 1.82 ± 0.067

UUGCGA
normalized RNA/DNA level with ligand (log10) (hypoxanthine [1]): 1.994 ± 0.015 | normalized RNA/DNA level without ligand (log10) (hypoxanthine [2]): 1.88 ± 0.027

UUGGUU
normalized RNA/DNA level with ligand (log10) (hypoxanthine [1]): 1.99 ± 0.037 | normalized RNA/DNA level without ligand (log10) (hypoxanthine [2]): 1.91 ± 0.025

UUGGUA
normalized RNA/DNA level with ligand (log10) (hypoxanthine [1]): 1.937 ± 0.0068 | normalized RNA/DNA level without ligand (log10) (hypoxanthine [2]): 1.885 ± 0.0069

UUGGUC
normalized RNA/DNA level with ligand (log10) (hypoxanthine [1]): 1.97 ± 0.034 | normalized RNA/DNA level without ligand (log10) (hypoxanthine [2]): 2.006 ± 0.0099

UUGGUG
normalized RNA/DNA level with ligand (log10) (hypoxanthine [1]): 2.008 ± 0.0026 | normalized RNA/DNA level without ligand (log10) (hypoxanthine [2]): 1.81 ± 0.054

CUGGCC
normalized RNA/DNA level with ligand (log10) (hypoxanthine [1]): 1.98 ± 0.16 | normalized RNA/DNA level without ligand (log10) (hypoxanthine [2]): 1.91 ± 0.042

CUGGCU
normalized RNA/DNA level with ligand (log10) (hypoxanthine [1]): 1.96 ± 0.077 | normalized RNA/DNA level without ligand (log10) (hypoxanthine [2]): 1.915 ± 0.0057

CUGGCA
normalized RNA/DNA level with ligand (log10) (hypoxanthine [1]): 1.971 ± 0.0092 | normalized RNA/DNA level without ligand (log10) (hypoxanthine [2]): 1.88 ± 0.039

CUGGCG
normalized RNA/DNA level with ligand (log10) (hypoxanthine [1]): 1.97 ± 0.029 | normalized RNA/DNA level without ligand (log10) (hypoxanthine [2]): 1.827 ± 0.0095

CUGGAG
normalized RNA/DNA level with ligand (log10) (hypoxanthine [1]): 1.86 ± 0.019 | normalized RNA/DNA level without ligand (log10) (hypoxanthine [2]): 1.62 ± 0.037

CUGGAU
normalized RNA/DNA level with ligand (log10) (hypoxanthine [1]): 1.94 ± 0.051 | normalized RNA/DNA level without ligand (log10) (hypoxanthine [2]): 1.75 ± 0.072

CUGGAC
normalized RNA/DNA level with ligand (log10) (hypoxanthine [1]): 1.97 ± 0.03 | normalized RNA/DNA level without ligand (log10) (hypoxanthine [2]): 1.87 ± 0.03

CUGGAA
normalized RNA/DNA level with ligand (log10) (hypoxanthine [1]): 1.94 ± 0.033 | normalized RNA/DNA level without ligand (log10) (hypoxanthine [2]): 1.771 ± 0.013

GUGUAC
normalized RNA/DNA level with ligand (log10) (hypoxanthine [1]): 1.92 ± 0.045 | normalized RNA/DNA level without ligand (log10) (hypoxanthine [2]): 1.69 ± 0.11

GUGUUU
normalized RNA/DNA level with ligand (log10) (hypoxanthine [1]): 1.92 ± 0.041 | normalized RNA/DNA level without ligand (log10) (hypoxanthine [2]): 1.87 ± 0.046

GUGUUA
normalized RNA/DNA level with ligand (log10) (hypoxanthine [1]): 1.912 ± 0.017 | normalized RNA/DNA level without ligand (log10) (hypoxanthine [2]): 1.79 ± 0.047

GUGUUC
normalized RNA/DNA level with ligand (log10) (hypoxanthine [1]): 1.909 ± 0.0089 | normalized RNA/DNA level without ligand (log10) (hypoxanthine [2]): 1.84 ± 0.044

UUUAGA
normalized RNA/DNA level with ligand (log10) (hypoxanthine [1]): 1.93 ± 0.054 | normalized RNA/DNA level without ligand (log10) (hypoxanthine [2]): 1.75 ± 0.035

AUGUCC
normalized RNA/DNA level with ligand (log10) (hypoxanthine [1]): 1.98 ± 0.11 | normalized RNA/DNA level without ligand (log10) (hypoxanthine [2]): 1.884 ± 0.011

AUGUCA
normalized RNA/DNA level with ligand (log10) (hypoxanthine [1]): 1.95 ± 0.08 | normalized RNA/DNA level without ligand (log10) (hypoxanthine [2]): 1.741 ± 0.0086

AUGUCG
normalized RNA/DNA level with ligand (log10) (hypoxanthine [1]): 1.863 ± 0.018 | normalized RNA/DNA level without ligand (log10) (hypoxanthine [2]): 1.52 ± 0.036

CUGCCU
normalized RNA/DNA level with ligand (log10) (hypoxanthine [1]): 1.95 ± 0.097 | normalized RNA/DNA level without ligand (log10) (hypoxanthine [2]): 1.92 ± 0.036

CUGCCG
normalized RNA/DNA level with ligand (log10) (hypoxanthine [1]): 1.96 ± 0.082 | normalized RNA/DNA level without ligand (log10) (hypoxanthine [2]): 1.8 ± 0.026

CUGCCA
normalized RNA/DNA level with ligand (log10) (hypoxanthine [1]): 2.03 ± 0.043 | normalized RNA/DNA level without ligand (log10) (hypoxanthine [2]): 1.886 ± 0.011

CUGCCC
normalized RNA/DNA level with ligand (log10) (hypoxanthine [1]): 1.99 ± 0.039 | normalized RNA/DNA level without ligand (log10) (hypoxanthine [2]): 1.971 ± 0.0093

UUGUAA
normalized RNA/DNA level with ligand (log10) (hypoxanthine [1]): 1.976 ± 0.014 | normalized RNA/DNA level without ligand (log10) (hypoxanthine [2]): 1.9 ± 0.042

UUGUAC
normalized RNA/DNA level with ligand (log10) (hypoxanthine [1]): 2 ± 0.025 | normalized RNA/DNA level without ligand (log10) (hypoxanthine [2]): 1.973 ± 0.0097

UUGUAG
normalized RNA/DNA level with ligand (log10) (hypoxanthine [1]): 1.99 ± 0.025 | normalized RNA/DNA level without ligand (log10) (hypoxanthine [2]): 1.84 ± 0.025

CUCUUG
normalized RNA/DNA level with ligand (log10) (hypoxanthine [1]): 1.93 ± 0.045 | normalized RNA/DNA level without ligand (log10) (hypoxanthine [2]): 1.87 ± 0.044

CUCUUA
normalized RNA/DNA level with ligand (log10) (hypoxanthine [1]): 1.895 ± 0.0051 | normalized RNA/DNA level without ligand (log10) (hypoxanthine [2]): 1.825 ± 0.012

CUCUUU
normalized RNA/DNA level with ligand (log10) (hypoxanthine [1]): 2 ± 0.0092 | normalized RNA/DNA level without ligand (log10) (hypoxanthine [2]): 1.912 ± 0.014

UUGUUC
normalized RNA/DNA level with ligand (log10) (hypoxanthine [1]): 2.012 ± 0.012 | normalized RNA/DNA level without ligand (log10) (hypoxanthine [2]): 2.01 ± 0.032

UUGUUA
normalized RNA/DNA level with ligand (log10) (hypoxanthine [1]): 1.983 ± 0.0091 | normalized RNA/DNA level without ligand (log10) (hypoxanthine [2]): 2.01 ± 0.043

UUGUUG
normalized RNA/DNA level with ligand (log10) (hypoxanthine [1]): 2.027 ± 0.012 | normalized RNA/DNA level without ligand (log10) (hypoxanthine [2]): 1.9556 ± 0.0016

UUGUUU
normalized RNA/DNA level with ligand (log10) (hypoxanthine [1]): 2.039 ± 0.018 | normalized RNA/DNA level without ligand (log10) (hypoxanthine [2]): 2.04 ± 0.042

GUGCUC
normalized RNA/DNA level with ligand (log10) (hypoxanthine [1]): 1.909 ± 0.011 | normalized RNA/DNA level without ligand (log10) (hypoxanthine [2]): 1.85 ± 0.034

GUGCUU
normalized RNA/DNA level with ligand (log10) (hypoxanthine [1]): 1.96 ± 0.027 | normalized RNA/DNA level without ligand (log10) (hypoxanthine [2]): 1.89 ± 0.019

GUGCUA
normalized RNA/DNA level with ligand (log10) (hypoxanthine [1]): 1.93 ± 0.017 | normalized RNA/DNA level without ligand (log10) (hypoxanthine [2]): 1.75 ± 0.093

UUUAAG
normalized RNA/DNA level with ligand (log10) (hypoxanthine [1]): 1.915 ± 0.016 | normalized RNA/DNA level without ligand (log10) (hypoxanthine [2]): 1.71 ± 0.043

UUUAAA
normalized RNA/DNA level with ligand (log10) (hypoxanthine [1]): 1.94 ± 0.034 | normalized RNA/DNA level without ligand (log10) (hypoxanthine [2]): 1.76 ± 0.036

GUUAAG
normalized RNA/DNA level with ligand (log10) (hypoxanthine [1]): 1.853 ± 0.0019 | normalized RNA/DNA level without ligand (log10) (hypoxanthine [2]): 1.48 ± 0.027

GUUAAA
normalized RNA/DNA level with ligand (log10) (hypoxanthine [1]): 1.933 ± 0.0032 | normalized RNA/DNA level without ligand (log10) (hypoxanthine [2]): 1.798 ± 0.0025

CUGUAC
normalized RNA/DNA level with ligand (log10) (hypoxanthine [1]): 1.93 ± 0.033 | normalized RNA/DNA level without ligand (log10) (hypoxanthine [2]): 1.75 ± 0.093

CUGUAA
normalized RNA/DNA level with ligand (log10) (hypoxanthine [1]): 1.917 ± 0.017 | normalized RNA/DNA level without ligand (log10) (hypoxanthine [2]): 1.713 ± 0.006

CUGUAG
normalized RNA/DNA level with ligand (log10) (hypoxanthine [1]): 1.88 ± 0.024 | normalized RNA/DNA level without ligand (log10) (hypoxanthine [2]): 1.65 ± 0.032
